Holding throughout (assay): single-molecule TIRF co-localization
Experiment [1] concerns the target Kif3A^ΔC89-Kif3B (human, UniProt Q9Y496 1-610; O15066 1-747, SNAPf tag labeled with Alexa 647).
Experiment [2] concerns the target Kif3A-Kif3B^ΔC90 (human, UniProt Q9Y496 1-699; O15066 1-657, SNAPf tag labeled with Alexa 647).
Experiment [3] concerns the target Kif3A-Kif3B^ΔC114 (human, UniProt Q9Y496 1-699; O15066 1-633, SNAPf tag labeled with Alexa 647).

Sequence of Kif3A-Kif3B^ΔC114 (Q9Y496 whole entry, stated change not applied, chain 1 of 2): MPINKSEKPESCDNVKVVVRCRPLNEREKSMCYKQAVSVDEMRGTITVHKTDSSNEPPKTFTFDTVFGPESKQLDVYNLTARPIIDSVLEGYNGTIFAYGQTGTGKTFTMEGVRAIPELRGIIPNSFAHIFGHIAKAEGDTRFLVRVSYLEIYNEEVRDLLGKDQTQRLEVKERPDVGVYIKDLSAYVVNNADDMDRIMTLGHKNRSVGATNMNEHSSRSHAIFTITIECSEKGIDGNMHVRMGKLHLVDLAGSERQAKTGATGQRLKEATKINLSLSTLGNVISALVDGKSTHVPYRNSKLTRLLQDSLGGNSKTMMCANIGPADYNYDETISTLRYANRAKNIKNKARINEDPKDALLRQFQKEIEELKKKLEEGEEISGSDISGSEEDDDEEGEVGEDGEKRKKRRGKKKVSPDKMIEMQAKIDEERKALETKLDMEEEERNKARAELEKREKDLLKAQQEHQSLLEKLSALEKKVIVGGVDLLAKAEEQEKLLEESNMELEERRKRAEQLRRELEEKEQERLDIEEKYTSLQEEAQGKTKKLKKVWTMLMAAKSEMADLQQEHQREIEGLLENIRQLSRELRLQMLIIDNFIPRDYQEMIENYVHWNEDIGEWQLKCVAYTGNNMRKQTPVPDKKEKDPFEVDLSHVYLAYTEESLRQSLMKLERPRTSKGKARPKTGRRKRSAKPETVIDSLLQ
Sequence of Kif3A-Kif3B^ΔC114 (O15066 1-633, stated change not applied, chain 2 of 2): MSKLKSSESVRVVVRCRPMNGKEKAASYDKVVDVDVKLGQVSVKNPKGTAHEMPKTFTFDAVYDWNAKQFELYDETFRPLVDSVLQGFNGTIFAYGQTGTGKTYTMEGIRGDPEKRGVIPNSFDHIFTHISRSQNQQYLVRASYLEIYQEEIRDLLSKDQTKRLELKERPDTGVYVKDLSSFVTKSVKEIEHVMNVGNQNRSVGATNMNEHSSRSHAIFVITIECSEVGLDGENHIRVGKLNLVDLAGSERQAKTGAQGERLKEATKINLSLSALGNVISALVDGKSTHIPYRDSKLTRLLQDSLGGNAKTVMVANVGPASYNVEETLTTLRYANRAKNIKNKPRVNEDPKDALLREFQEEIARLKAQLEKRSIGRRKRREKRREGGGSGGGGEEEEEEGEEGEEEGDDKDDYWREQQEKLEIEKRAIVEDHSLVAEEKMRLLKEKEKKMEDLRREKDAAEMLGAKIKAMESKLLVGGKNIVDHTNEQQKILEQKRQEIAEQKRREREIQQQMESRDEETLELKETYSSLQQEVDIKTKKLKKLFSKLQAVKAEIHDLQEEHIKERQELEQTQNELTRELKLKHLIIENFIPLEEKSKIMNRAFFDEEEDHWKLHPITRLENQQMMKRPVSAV
Sequence of Kif3A-Kif3B^ΔC90 (Q9Y496 whole entry, stated change not applied, chain 1 of 2): as the sequence (Q9Y496 whole entry, stated change not applied, chain 1 of 2) above
Sequence of Kif3A-Kif3B^ΔC90 (O15066 1-657, stated change not applied, chain 2 of 2): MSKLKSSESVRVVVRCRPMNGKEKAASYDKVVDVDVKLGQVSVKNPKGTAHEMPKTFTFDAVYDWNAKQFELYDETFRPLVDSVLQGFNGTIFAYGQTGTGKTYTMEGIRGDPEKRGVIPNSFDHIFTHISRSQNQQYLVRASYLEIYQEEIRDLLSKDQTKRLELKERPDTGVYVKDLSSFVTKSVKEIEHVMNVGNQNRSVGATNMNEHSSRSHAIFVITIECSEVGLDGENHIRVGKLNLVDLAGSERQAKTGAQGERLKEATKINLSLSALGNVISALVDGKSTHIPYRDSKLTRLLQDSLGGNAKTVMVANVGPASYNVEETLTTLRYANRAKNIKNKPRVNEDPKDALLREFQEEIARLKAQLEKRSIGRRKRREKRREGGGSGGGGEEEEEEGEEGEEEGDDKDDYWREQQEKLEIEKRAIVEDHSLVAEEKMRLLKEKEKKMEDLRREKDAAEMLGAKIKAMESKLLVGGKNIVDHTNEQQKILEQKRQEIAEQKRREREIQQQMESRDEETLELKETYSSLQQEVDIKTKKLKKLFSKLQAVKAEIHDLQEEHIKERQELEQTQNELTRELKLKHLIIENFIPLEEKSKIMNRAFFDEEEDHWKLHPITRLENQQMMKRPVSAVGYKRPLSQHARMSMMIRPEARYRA
Sequence of Kif3A^ΔC89-Kif3B (Q9Y496 1-610, stated change not applied, chain 1 of 2): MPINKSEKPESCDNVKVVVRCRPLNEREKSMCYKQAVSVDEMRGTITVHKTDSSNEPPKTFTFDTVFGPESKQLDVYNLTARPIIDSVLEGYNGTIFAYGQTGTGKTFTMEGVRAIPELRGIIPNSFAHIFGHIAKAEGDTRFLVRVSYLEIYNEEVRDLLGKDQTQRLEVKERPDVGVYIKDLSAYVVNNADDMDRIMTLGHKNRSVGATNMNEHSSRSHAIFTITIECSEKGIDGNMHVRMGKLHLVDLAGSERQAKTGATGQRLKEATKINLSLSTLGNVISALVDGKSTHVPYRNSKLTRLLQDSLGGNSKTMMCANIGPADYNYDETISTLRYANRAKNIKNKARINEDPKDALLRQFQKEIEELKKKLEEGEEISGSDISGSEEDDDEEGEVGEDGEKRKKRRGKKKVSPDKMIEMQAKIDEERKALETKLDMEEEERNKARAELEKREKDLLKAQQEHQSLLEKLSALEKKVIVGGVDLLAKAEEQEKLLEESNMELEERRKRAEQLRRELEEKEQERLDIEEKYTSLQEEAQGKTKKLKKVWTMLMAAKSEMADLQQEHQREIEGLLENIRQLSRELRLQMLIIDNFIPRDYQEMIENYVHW
Sequence of Kif3A^ΔC89-Kif3B (O15066 whole entry, stated change not applied, chain 2 of 2): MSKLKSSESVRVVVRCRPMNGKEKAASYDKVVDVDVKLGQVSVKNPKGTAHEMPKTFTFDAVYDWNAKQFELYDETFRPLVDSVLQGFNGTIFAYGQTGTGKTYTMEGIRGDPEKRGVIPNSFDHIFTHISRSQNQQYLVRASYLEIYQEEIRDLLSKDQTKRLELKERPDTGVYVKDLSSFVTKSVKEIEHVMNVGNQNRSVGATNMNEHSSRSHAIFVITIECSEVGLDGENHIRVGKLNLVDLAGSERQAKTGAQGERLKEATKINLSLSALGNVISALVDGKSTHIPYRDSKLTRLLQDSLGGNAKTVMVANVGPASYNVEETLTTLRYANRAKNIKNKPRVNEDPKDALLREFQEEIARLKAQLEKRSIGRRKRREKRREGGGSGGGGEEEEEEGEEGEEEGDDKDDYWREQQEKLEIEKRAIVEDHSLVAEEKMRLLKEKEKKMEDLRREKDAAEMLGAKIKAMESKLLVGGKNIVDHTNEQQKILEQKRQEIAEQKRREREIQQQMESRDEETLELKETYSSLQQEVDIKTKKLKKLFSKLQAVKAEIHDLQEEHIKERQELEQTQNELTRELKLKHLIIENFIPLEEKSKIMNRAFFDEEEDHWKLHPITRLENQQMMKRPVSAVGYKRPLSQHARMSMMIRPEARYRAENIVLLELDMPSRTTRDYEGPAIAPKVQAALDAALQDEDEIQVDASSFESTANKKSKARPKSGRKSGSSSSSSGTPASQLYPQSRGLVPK

B1: Kap3 (natural protein, human, UniProt Q92845 1-792, looked up)
chain: MQGEDARYLKRKVKGGNIDVHPSEKALIVHYEVEATILGEMGDPMLGERKECQKIIRLKSLNANTDITSLARKVVEECKLIHPSKLNEVEQLLYYLQNRRDSLSGKEKKEKSSKPKDPPPFEGMEIDEVANINDMDEYIELLYEDIPDKVRGSALILQLARNPDNLEELLLNETALGALARVLREDWKQSVELATNIIYIFFCFSSFSQFHGLITHYKIGALCMNIIDHELKRHELWQEELSKKKKAVDEDPENQTLRKDYEKTFKKYQGLVVKQEQLLRVALYLLLNLAEDTRTELKMRNKNIVHMLVKALDRDNFELLILVVSFLKKLSIFMENKNDMVEMDIVEKLVKMIPCEHEDLLNITLRLLLNLSFDTGLRNKMVQVGLLPKLTALLGNDNYKQIAMCVLYHISMDDRFKSMFAYTDCIPQLMKMLFECSDERIDLELISFCINLAANKRNVQLICEGNGLKMLMKRALKFKDPLLMKMIRNISQHDGPTKNLFIDYVGDLAAQISNDEEEEFVIECLGTLANLTIPDLDWELVLKEYKLVPYLKDKLKPGAAEDDLVLEVVIMIGTVSMDDSCAALLAKSGIIPALIELLNAQQEDDEFVCQIIYVFYQMVFHQATRDVIIKETQAPAYLIDLMHDKNNEIRKVCDNTLDIIAEYDEEWAKKIQSEKFRWHNSQWLEMVESRQMDESEQYLYGDDRIEPYIHEGDILERPDLFYNSDGLIASEGAISPDFFNDYHLQNGDVVGQHSFPGSLGMDGFGQPVGILGRPATAYGFRPDEPYYYGYGS
modifications: SNAPf tag labeled with TMR in the co-localization assay
For B1, the “percent of Kif3AB molecules with Kap3 co-localized” value in experiment [1] was 26%; in experiment [2] it was 62%; in experiment [3] it was 50%.

Values taken from article doi:10.1101/2024.10.14.618219 (bioRxiv, 2024).
